Assay [1] addresses T1, mouse MOG overexpressed on cells (293T-mMOG, K562-mMOG) (mouse, UniProt Q61885 29-246).
T1 construct: whole, on cells
T1 sequence (looked up): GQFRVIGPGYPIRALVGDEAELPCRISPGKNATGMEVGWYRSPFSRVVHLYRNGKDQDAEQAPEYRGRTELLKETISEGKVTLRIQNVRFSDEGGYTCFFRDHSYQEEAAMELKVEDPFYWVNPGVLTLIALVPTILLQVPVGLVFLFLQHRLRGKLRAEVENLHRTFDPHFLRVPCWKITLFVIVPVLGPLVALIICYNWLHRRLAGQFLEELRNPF
Description: flow cytometry, Fab on 293T-mMOG cells, Anti-Fc-FITC secondary, MFI.

The target of a further assay is T2, recombinant hMOG_his (human, UniProt Q16653 30-154, limits assumed).
T2 construct: also called human MOG antigen; not shown: His tag
T2 sequence: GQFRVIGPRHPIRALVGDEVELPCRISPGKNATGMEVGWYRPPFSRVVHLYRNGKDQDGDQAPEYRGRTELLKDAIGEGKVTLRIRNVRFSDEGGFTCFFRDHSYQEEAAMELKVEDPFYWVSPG
Description: SPR, Biacore T200; MOG_His amine-coupled on CM5, Fab as analyte, 1:1 Langmuir fit. A general note: SPR reads the build-up and loss of mass on a sensor chip optically.

The target in assay [2] is T3, human MOG overexpressed on cells (293T-hMOG, K562-hMOG) (human, UniProt Q16653 30-247).
T3 construct: Cells overexpressing human MOG built by conventional techniques; also called K562-huMOG
T3 chain: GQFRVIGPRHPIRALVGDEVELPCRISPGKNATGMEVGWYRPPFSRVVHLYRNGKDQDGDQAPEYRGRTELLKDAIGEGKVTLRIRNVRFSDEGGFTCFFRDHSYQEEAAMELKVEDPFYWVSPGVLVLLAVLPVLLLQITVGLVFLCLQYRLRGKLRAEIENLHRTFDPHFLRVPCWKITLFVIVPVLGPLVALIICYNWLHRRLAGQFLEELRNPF
The assay is described as follows: flow cytometry, Fab 5 µg/mL on 293T-hMOG cells, Anti-Fc-FITC secondary, MFI; controls 293T cells and NA (no antibody). A general note: A flow cytometer gives signals particle by particle.

Assay [3] addresses T1, mouse MOG overexpressed on cells …. Description: flow cytometry, Fab 5 µg/mL on 293T-mMOG cells, Anti-Fc-FITC secondary, MFI; controls 293T cells and NA (no antibody).

Numbering of substitutions follows the chain as printed.

B1: A9 (Fab form) (Fab, V domains shown)
VH: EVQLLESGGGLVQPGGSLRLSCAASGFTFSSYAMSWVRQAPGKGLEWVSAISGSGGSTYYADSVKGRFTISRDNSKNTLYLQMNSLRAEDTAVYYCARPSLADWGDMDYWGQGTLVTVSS
VL: DIQMTQSPSTLSASVGDRVTITCRASQSISSWLAWYQQKPGKAPKLLIYDASSLESGVPSRFSGSGSGTEFTLTISSLQPDDFATYYCQQYDQYWTFGQGTKVEIKR
notes: also called antibody A9
What is called Kd is the concentration at which binding is half-saturated. In general, koff refers to a measure of how fast the partners let go of each other. One may read the kon as the rate constant with which the complex forms. In the case of B1, the binding result in assay [1] is “no binding”. Further, in the assay with recombinant hMOG_his, the Kd came to 2.28 nM, the dissociation rate constant (koff) was found to be 0.000287 s⁻¹ and the kon is 125000 M⁻¹ s⁻¹. Besides, the binding result in assay [2] is given as “binds”.

B2: A12 (Fab form) (Fab, V domains shown)
VH: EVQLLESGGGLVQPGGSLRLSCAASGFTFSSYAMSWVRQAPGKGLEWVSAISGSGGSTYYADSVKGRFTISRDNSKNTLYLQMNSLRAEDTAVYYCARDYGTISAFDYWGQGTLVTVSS
VL: B1 VL with D92G, Q93I, Y94P
notes: Fully human anti-MOG clone tested in Fab form; also called antibody A12
As for B2, the binding result in assay [1] is “no binding”. Moreover, in the assay with recombinant hMOG_his, the Kd stood at 6.83 nM, the koff was determined as 0.00103 s⁻¹ and the kon is 151000 M⁻¹ s⁻¹. Moreover, in assay [2], the binding result is “binds”.

B3: A11 (Fab form) (Fab, V domains shown)
VH: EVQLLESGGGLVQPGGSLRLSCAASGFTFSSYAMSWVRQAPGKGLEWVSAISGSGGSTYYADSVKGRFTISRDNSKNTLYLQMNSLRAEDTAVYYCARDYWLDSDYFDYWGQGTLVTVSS
VL: B1 VL with Y91V, D92Y, Q93I, W95S
notes: Fully human anti-MOG clone tested in Fab form; also called antibody A11; All [sic]
Turning to B3, the binding result in assay [1] is given as “no binding”. In addition, in the assay with recombinant hMOG_his, the Kd was 17.6 nM, the koff was determined as 0.00432 s⁻¹ and the kon was 246000 M⁻¹ s⁻¹. The binding result in assay [2] is “binds”.

B4: A3 (Fab form) (Fab, V domains shown)
VH: QVQLVQSGAEVKKPGSSVKVSCKASGGTFSSYAISWVRQAPGQGLEWMGGIIPIFGTANYAQKFQGRVTITADKSTSTAYMELSSLRSEDTAVYYCARGWYFFDAGFDYWGQGTTVTVSS
VL: DIQMTQSPSTLSASVGDRVTITCRASQSISSWLAWYQQKPGKAPKLLIYDASSLESGVPSRFSGSGSGTEFTLTISSLQPDDFATYYCQQYDSPLLTFGQGTKVEIKR
notes: Fully human anti-MOG clone tested in Fab form; also called antibody A3
With B4, in assay [1], the binding result was “no binding”. In addition, in the assay with recombinant hMOG_his, the Kd turned out to be 5.92 nM, the off-rate (koff) came to 0.00139 s⁻¹ and the kon stood at 234000 M⁻¹ s⁻¹. In assay [2], the binding result is on record as “binds”.

B5: A5 (Fab form) (Fab, V domains shown)
VH: QVQLVQSGAEVKKPGSSVKVSCKASGGTFSSYAISWVRQAPGQGLEWMGGIIPIFGTANYAQKFQGRVTITADKSTSTAYMELSSLRSEDTAVYYCARAPYSPTYYPFDYWGQGTTVTVSS
VL: B4 VL with D92S, S93M, P94D, L95H
notes: Fully human anti-MOG clone tested in Fab form; also called antibody A5
With B5, in the assay with recombinant hMOG_his, the Kd worked out at 27.6 nM, the koff came to 0.00278 s⁻¹ and the kon came to 101000 M⁻¹ s⁻¹. In assay [2], the binding result was “binds”. Besides, the binding result in assay [3] is recorded as “binds”.

B6: A7 (Fab form) (Fab, V domains shown)
VH: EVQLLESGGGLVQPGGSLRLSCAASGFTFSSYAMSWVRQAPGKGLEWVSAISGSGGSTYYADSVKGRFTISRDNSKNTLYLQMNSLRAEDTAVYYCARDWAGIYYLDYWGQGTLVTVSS
VL: B4 VL with Y91S, S93T, P94Y, L95P, L96R
notes: Fully human anti-MOG clone tested in Fab form; also called antibody A7
Take B6: in the assay with recombinant hMOG_his, the equilibrium dissociation constant (Kd) came to 25.6 nM, the koff is 0.00166 s⁻¹ and the kon was determined as 65000 M⁻¹ s⁻¹. Moreover, the binding result in assay [2] is listed as “binds”. Also, the binding result in assay [3] is “binds”.

B7: A4 (Fab form) (Fab, V domains shown)
VH: B4 VH with G99E, F102W, F103P, A105N, G106P
VL: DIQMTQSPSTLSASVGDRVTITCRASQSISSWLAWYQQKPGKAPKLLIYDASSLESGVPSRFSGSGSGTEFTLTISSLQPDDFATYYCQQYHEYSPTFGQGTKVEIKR
notes: Fully human anti-MOG clone tested in Fab form; also called antibody A4
As to B7, in the assay with recombinant hMOG_his, the Kd came to 24 nM, the koff stood at 0.000516 s⁻¹ and the kon worked out at 21500 M⁻¹ s⁻¹. Further, the binding result in assay [2] is “binds”. The binding result in assay [3] is recorded as “binds”.

B8: A1 (Fab form) (Fab, V domains shown)
VH: QVQLVQSGAEVKKPGSSVKVSCKASGGTFSSYAISWVRQAPGQGLEWMGGIIPIFGTANYAQKFQGRVTITADKSTSTAYMELSSLRSEDTAVYYCARGYFSEEAMDYWGQGTTVTVSS
VL: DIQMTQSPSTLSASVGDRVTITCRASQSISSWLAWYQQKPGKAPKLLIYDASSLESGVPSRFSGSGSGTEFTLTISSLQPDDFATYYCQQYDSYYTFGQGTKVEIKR
notes: Fully human anti-MOG clone tested in Fab form; also called antibody A1
For B8, in assay [1], the binding result is “no binding”. Moreover, in the assay with recombinant hMOG_his, the Kd was 7.26 nM, the koff is 0.00193 s⁻¹ and the on-rate (kon) stood at 266000 M⁻¹ s⁻¹. Further, the binding result in assay [2] was “binds”.
